In US20190062438A1 (CSL, published 2019):
Residue numbers refer to the chain shown, from its start. Like-named read-outs stand apart in the source and are kept apart here.

B1: 9A2-VR19 Fab (Fab, V domains shown)
VH: EVQLLESGGGLVQPGGSLRLSCAASGFTFSHYHMLWVRQAPGKGLEWVSSIRSSGGFTYYADSVKGRFTISRDNSKNTLYLQMNSLRAEDTAVYYCARFYDSFFDIWGQGTMVTVSS
VL: DIQMTQSPSSVSASVGDRVTITCRASQGISSWLAWYQQKPGKAPKLLIYAASSLQSGVPSRFSGSGSGTDFTLTISSLQPEDFATYYCGIPILGPITFGQGTRLEIKR
notes: recombinant Fab
B2: 9A2-VR39 (antibody, V domains shown)
VH: B1 VH with R52N, S53G, S54R, G56R, F57V
VL: B1 VL with G89Q, I90Q, P91A, I92N, L93S, G94F
B3: 9A2-VR24 (antibody, V domains shown)
VH: B1 VH with S30P, H31W, H33R, M34V, L35H
VL: B1 VL with G89Q, I90Q, P91A, I92N, L93S, G94F
B4: 9A2-VR26 Fab (Fab, V domains shown)
VH: B1 VH with S30I, H33R, M34V, L35H
VL: B1 VL with G89Q, I90Q, P91A, I92N, L93S, G94F
notes: recombinant Fab
B5: 9A2-VR40 Fab (Fab, V domains shown)
VH: B1 VH with R52N, S53G, S54Y, G56I, F57Q
VL: B1 VL with G89Q, I90Q, P91A, I92N, L93S, G94F
notes: recombinant Fab
B6: 9A2-VR35 Fab (Fab, V domains shown)
VH: B1 VH with R52N, S53G, S54F, G56R, F57N
VL: B1 VL with G89Q, I90Q, P91A, I92N, L93S, G94F
notes: recombinant Fab
B7: 9A2-VR44 Fab (Fab, V domains shown)
VH: B1 VH with F103H
VL: B1 VL with G89Q, I90Q, P91A, I92N, L93S, G94F
notes: recombinant Fab
B8: 9A2-VR36 Fab (Fab, V domains shown)
VH: B1 VH with R52G, S53G, S54D, G55K, G56R, F57Q
VL: B1 VL with G89Q, I90Q, P91A, I92N, L93S, G94F
notes: recombinant Fab
B9: 9A2-VR32 Fab (Fab, V domains shown)
VH: B1 VH with R52S, S53G, G55V, G56R, F57S
VL: B1 VL with G89Q, I90Q, P91A, I92N, L93S, G94F
notes: recombinant Fab
B10: 9A2-VR42 Fab (Fab, V domains shown)
VH: B1 VH with R52G, S53G, S54D, G55I, G56R, F57Q
VL: B1 VL with G89Q, I90Q, P91A, I92N, L93S, G94F
notes: recombinant Fab
B11: 9A2-VR41 Fab (Fab, V domains shown)
VH: B1 VH with R52N, S53G, S54K, G56W, F57T
VL: B1 VL with G89Q, I90Q, P91A, I92N, L93S, G94F
notes: recombinant Fab
B12: 9A2-VR27 Fab (Fab, V domains shown)
VH: B1 VH with S30T, H33R, M34V, L35H
VL: B1 VL with G89Q, I90Q, P91A, I92N, L93S, G94F
notes: recombinant Fab
B13: 9A2-VR24 Fab (Fab, V domains shown)
VH: B1 VH with S30P, H31W, H33R, M34V, L35H
VL: B1 VL with G89Q, I90Q, P91A, I92N, L93S, G94F
notes: recombinant Fab
B14: 9A2-VR21 Fab (Fab, V domains shown)
VH: B1 VH with S30M, H33R, M34V, L35H
VL: B1 VL with G89Q, I90Q, P91A, I92N, L93S, G94F
notes: recombinant Fab
B15: 9A2-VR20 Fab (Fab, V domains shown)
VH: B1 VH with S30N, H33R, M34V, L35H
VL: B1 VL with G89Q, I90Q, P91A, I92N, L93S, G94F
notes: recombinant Fab
B16: 9A2-VR39 Fab (Fab, V domains shown)
VH: B1 VH with R52N, S53G, S54R, G56R, F57V
VL: B1 VL with G89Q, I90Q, P91A, I92N, L93S, G94F
notes: recombinant Fab
B17: recombinant human GM-CSF (ligand, UniProt P04141 18-144, looked up)
chain: APARSYYSPSTQPWEHVNAIQEARRLLNLSRDTAAEMNETVEVISEMFDLQEPTCLQTRLELYKQGLRGSLTKLKGPLTMMASHYKQHCPPTPETSCATQIITFESFKENLKDFLLVIPFDCWEPVQE
modifications: radio-iodinated where used as label
notes: position probably counts on mature GM-CSF

Assays:
[1] = biological target: T1, soluble Homo sapiens CD131 comprising a C-terminal 6xHis tag (human, UniProt P32927 17-438); assay: SPR, Fab over captured shCD131
T1 construct: truncated after Ser438, C-terminal 6xHis; also called shCD131; shβc
T1 sequence: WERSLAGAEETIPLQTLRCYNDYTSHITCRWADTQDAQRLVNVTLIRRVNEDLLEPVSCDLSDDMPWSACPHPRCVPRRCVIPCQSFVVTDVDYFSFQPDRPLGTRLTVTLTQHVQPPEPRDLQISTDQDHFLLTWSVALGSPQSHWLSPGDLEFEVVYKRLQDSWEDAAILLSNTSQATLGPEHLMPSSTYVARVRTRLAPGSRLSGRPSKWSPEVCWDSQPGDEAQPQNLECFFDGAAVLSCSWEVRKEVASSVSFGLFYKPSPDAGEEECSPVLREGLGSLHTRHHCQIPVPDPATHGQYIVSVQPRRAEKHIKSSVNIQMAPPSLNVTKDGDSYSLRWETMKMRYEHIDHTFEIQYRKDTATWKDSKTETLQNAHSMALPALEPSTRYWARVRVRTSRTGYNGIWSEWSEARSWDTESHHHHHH
Method: (§1) Binding kinetics were measured using SPR with a BIAcore™ A-100 instrument (GE Healthcare Life Sciences). An anti-C-terminal Hexa-His antibody (3H3) was immobilized on spots 1, 2, 4 and 5 of each flow cell of a CM-5 sensor chip (GE Healthcare Life Sciences) using amine-coupling chemistry (116). […] As shβc is a dimer, kinetics assays were performed with shβc captured on the sensor surface, and purified Fab injected as the analyte. Avidity effects were avoided by the use of Fab rather than whole IgG.
(§2) shCD131 was captured on spots 1 and 5 of each flow cell for 2 minutes at a concentration of 0.4 μg/ml. […] For some analysis purified Fab was injected over each flow cell for 3 minutes and dissociation was monitored for a further 10 minutes. Regeneration of the surface was performed after each cycle with a 40 second injection of 25 mM glycine, pH 2.0. The analysis was performed with Fabs at several concentrations between 100 and 0.31 nM, with each concentration analyzed twice and in random order. The analysis was performed at a flow rate of 30 μl/min in HBS-EP buffer (10 mM Hepes, 150 mM NaCl, 3 mM EDTA, 0.005% Tween 20, pH 7.4) at 37° C. Responses from spots 2 and 4 of each flow cell, (in which shβc was not captured, but otherwise treated identically), were subtracted from those of spots 1 and 5 respectively to produce reference subtracted data. Reference subtracted responses from a blank injection comprising buffer alone were subtracted from the resultant sensorgrams to produce double referenced data suitable for kinetic analysis. Double-referenced sensorgrams were fitted using non-linear regression to a model describing 1:1 kinetics, including a term for mass transport limitation. The Rₘₐₓ value was fitted locally to account for slight deviations in the level of sCD131 captured, with association rate (kₐ), dissociation rate (kd) and equilibrium dissociation constant (KD) fitted globally.

human CD131 [2] = biological target: T2, human CD131 (human, UniProt P32927 17-897); assay: cell-based or functional assay
T2 sequence: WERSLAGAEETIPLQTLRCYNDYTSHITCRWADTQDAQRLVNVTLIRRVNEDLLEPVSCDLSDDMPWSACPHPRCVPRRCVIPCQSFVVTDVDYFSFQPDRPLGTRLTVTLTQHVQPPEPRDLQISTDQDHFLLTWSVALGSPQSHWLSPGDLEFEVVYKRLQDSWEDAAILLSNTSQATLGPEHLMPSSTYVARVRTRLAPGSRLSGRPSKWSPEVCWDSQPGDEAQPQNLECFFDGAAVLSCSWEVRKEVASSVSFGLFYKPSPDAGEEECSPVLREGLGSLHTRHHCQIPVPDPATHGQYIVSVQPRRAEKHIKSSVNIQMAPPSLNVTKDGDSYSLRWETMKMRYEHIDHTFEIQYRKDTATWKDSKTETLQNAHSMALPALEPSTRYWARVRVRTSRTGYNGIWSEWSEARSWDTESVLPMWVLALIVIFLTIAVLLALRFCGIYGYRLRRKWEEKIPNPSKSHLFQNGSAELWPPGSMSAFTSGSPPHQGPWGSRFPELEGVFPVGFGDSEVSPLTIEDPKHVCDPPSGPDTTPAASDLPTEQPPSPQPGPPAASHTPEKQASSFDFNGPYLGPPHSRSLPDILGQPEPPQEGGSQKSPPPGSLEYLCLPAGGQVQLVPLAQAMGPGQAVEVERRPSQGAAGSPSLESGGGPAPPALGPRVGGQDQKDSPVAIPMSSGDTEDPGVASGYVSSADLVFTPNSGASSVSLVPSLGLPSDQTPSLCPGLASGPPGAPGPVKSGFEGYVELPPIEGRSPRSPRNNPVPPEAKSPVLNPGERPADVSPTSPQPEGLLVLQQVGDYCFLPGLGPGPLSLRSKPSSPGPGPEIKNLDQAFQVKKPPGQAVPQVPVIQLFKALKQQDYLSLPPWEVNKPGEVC

human CD131 [3] = biological target: T2, human CD131; assay: cell-based or functional assay; remark: listed apart in the source
human CD131 [4] = biological target: T2, human CD131; assay: cell-based or functional assay; remark: listed apart in the source
[5] = biological target: T1, soluble Homo sapiens CD131 comprising a …; assay: SPR, Fab over captured shCD131; remark: listed apart in the source
Method: as §1, §2

human CD131 [6] = biological target: T2, human CD131; assay: competition binding on TF-1 cells: cells pre-incubated with the cytokine, then equilibrated with 85 pM radio-iodinated 9A2-VR24.29; cell-bound c.p.m.
Method: Each point is the mean of duplicate determinations of cell-bound radioiodinated cytokine and error bars represent the standard deviation.
Cytokines and antibodies were radio-iodinated using Pierce Pre-Coated Iodination tubes (Thermo Scientific) according to the manufacturer's instructions. MAb binding to cells expressing hβc was determined by incubating 1-2×10⁶ cells with radio-iodinated mAb at a range of concentrations at 23° C. for 1-2 hours with gentle mixing. Cell suspensions were then centrifuged through fetal calf serum (FCS) and radioactivity associated with the cells pellets was assessed by counting in a Wizard² 2470 Automatic Gamma Counter (Perkin Elmer, Rowville, VIC, Australia). Non-specific binding was assessed for each radio-iodinated mAb in the presence of at least a 500-fold excess of unlabeled mAb. […] Competition binding assays were performed essentially as previously described (41). Briefly 1-2×10⁶ cells were incubated with mAb or cytokine competitor at a range of concentrations at 4° C. for 45 minutes with gentle mixing. Radio-iodinated cytokine or mAb was then added and the mixture incubated at 23° C. for a further 1-2 hours with gentle mixing. Cell suspensions were then centrifuged through FCS and radioactivity associated with the cells pellets assessed by counting.

Binder | Kd [1] | koff [1] | kon [1] | other results
B1 | 30000 pM |  |  | 
B2 |  |  |  | IC50 GM-CSF, TF-1 proliferation (human CD131 [2]): 880 pM; fold improvement in GM-CSF potency over parental 9A2 (human CD131 [3]): 518 fold; IC50 GM-CSF, TF-1 proliferation (human CD131 [4]): 880 pM; pStat5 IC50 GM-CSF, TF-1 bla reporter (human CD131 [4]): 4.1 nM
B3 |  |  |  | IC50 GM-CSF, TF-1 proliferation (human CD131 [2]): 2500 pM; fold potency improvement (GM-CSF) over parental 9A2 (human CD131 [3]): 182 fold; IC50 GM-CSF, TF-1 proliferation (human CD131 [4]): 2500 pM; IC50 IL-3, TF-1 proliferation (human CD131 [4]): 726 pM; IC50 IL-5, TF-1 proliferation (human CD131 [4]): 23500 pM; pStat5 IC50 GM-CSF, TF-1 bla reporter (human CD131 [4]): 8.6 nM
B4 | 230 pM | 0.00055 s⁻¹ | 2.4e+06 M⁻¹ s⁻¹ | 
B5 | 520 pM | 0.00066 s⁻¹ | 1.3e+06 M⁻¹ s⁻¹ | 
B6 | 340 pM |  |  | 
B7 | 5000 pM |  |  | 
B8 | 300 pM |  |  | 
B9 | 340 pM |  |  | 
B10 | 380 pM |  |  | 
B11 | 460 pM | 0.00076 s⁻¹ | 1.7e+06 M⁻¹ s⁻¹ | 
B12 | 470 pM | 0.0011 s⁻¹ | 2.3e+06 M⁻¹ s⁻¹ | 
B13 | 460 pM | 0.0011 s⁻¹ | 2.3e+06 M⁻¹ s⁻¹ | Kd [5]: 460 pM; koff [5]: 0.0011 s⁻¹; kon [5]: 2.3e+06 M⁻¹ s⁻¹; fold decrease in dissociation rate (kd) compared to parental 9A2 [1]: 87 fold; fold decrease in the dissociation rate (kd) compared to parental 9A2 [1]: 87 fold; fold higher affinity compared to parental 9A2 [1]: 106 fold
B14 | 390 pM |  |  | 
B15 | 580 pM |  |  | 
B16 | 270 pM | 0.00059 s⁻¹ | 3e+06 M⁻¹ s⁻¹ | Kd [5]: 270 pM; koff [5]: 0.00059 s⁻¹; kon [5]: 3e+06 M⁻¹ s⁻¹; fold improvement in binding affinity over parental 9A2 [1]: ~180 fold
B17 |  |  |  | IC50 (read off the curve) (human CD131 [6]): ~30 pM
